Results taken from article PMC6377654, “Screening and identification of a non-peptide antagonist for the peptide hormone receptor in Arabidopsis” (Communications Biology, 2019).
Values belong to the compound of their own block, whether it stands above or below them.

Columns and labels:
BAM1 = biological target: T1, BAM1 (Arabidopsis thaliana, UniProt O49545); assay: competition binding of fluorescent Alexa488-CLE9 on bead-immobilized BAM1 (confocal imaging); confirmed by competitive photoaffinity labeling with […]ASA-CLE9 and […]ASA-[Ara3]CLV3
T1 construct: BAM1-HT: Met1 to Ile700 region (signal peptide, 22 LRRs, transmembrane domain), cytoplasmic kinase domain replaced with HaloTag; expressed in tobacco BY-2 cells, immobilized on HaloLink Sepharose beads
T1 sequence (O49545 1-700): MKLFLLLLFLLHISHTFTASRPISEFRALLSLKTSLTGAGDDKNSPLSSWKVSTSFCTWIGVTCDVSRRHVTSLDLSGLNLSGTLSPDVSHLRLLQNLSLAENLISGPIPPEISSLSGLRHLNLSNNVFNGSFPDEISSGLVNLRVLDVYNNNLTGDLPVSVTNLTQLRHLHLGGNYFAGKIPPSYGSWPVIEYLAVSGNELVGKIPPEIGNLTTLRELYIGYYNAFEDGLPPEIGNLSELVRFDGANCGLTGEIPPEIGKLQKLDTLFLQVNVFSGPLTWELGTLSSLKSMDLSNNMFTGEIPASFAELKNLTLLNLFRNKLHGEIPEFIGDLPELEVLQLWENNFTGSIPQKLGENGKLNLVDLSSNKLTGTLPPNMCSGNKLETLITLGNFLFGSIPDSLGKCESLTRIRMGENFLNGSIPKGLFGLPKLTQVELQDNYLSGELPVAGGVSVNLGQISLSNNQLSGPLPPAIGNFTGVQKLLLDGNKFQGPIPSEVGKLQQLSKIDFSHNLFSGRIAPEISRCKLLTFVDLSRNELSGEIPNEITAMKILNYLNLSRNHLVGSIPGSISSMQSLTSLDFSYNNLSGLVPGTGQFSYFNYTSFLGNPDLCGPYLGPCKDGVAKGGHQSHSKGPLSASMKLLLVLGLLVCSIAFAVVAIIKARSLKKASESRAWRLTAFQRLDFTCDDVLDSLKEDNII

[1] = biological target: BAM2 (Arabidopsis thaliana) (UniProt Q9M2Z1); conditions: cited from earlier work
Sequence of BAM2 (Arabidopsis thaliana) (Q9M2Z1 23-636): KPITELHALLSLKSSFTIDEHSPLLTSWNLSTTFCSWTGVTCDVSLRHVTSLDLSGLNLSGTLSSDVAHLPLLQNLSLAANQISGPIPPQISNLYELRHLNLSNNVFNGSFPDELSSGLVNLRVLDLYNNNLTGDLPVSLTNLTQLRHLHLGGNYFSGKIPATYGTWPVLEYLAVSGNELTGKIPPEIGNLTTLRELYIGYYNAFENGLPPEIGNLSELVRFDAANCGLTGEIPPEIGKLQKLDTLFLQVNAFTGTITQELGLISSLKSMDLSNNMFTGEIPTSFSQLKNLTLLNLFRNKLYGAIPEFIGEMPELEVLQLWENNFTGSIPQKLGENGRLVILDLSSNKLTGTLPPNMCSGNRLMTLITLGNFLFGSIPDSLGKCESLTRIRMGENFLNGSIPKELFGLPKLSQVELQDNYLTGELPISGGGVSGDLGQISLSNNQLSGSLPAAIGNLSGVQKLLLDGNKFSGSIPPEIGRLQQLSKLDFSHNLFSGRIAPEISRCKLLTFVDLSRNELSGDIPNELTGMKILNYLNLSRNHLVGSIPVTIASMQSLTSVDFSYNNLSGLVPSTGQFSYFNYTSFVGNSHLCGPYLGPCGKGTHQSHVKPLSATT

[2] = biological target: BAM1 (Arabidopsis thaliana) (UniProt O49545); conditions: cited from earlier work
[3] = biological target: CLV1 (Arabidopsis thaliana) (UniProt Q9SYQ8); conditions: cited from earlier work
Sequence of CLV1 (Arabidopsis thaliana) (Q9SYQ8 25-638): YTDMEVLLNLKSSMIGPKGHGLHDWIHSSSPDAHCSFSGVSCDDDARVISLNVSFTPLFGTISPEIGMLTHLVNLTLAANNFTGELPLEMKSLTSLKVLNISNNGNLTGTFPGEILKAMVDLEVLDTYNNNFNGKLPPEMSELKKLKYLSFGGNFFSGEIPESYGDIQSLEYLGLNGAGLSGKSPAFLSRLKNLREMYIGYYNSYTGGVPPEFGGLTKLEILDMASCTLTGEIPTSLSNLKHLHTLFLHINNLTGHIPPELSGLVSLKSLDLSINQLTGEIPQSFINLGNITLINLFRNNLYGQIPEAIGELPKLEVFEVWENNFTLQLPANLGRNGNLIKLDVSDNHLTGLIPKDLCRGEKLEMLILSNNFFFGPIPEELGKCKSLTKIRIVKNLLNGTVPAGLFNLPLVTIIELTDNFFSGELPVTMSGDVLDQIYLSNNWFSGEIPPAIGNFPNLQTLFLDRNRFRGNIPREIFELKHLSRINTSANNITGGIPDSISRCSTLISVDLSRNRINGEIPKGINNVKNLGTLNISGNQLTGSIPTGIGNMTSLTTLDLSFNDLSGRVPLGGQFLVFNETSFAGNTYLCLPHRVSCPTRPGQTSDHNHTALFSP

[4] = biological target: BAM1-HaloTag (recombinant BAM1 in which the cytoplasmic kinase domain was replaced with HaloTag) (Arabidopsis) (UniProt O49545); assay: cross-linking; photoaffinity labeling as a3, in the presence of 10 μM NPD12704
[5] = biological target: BAM1-HaloTag (recombinant BAM1 in which the cytoplasmic kinase domain was replaced with HaloTag) (Arabidopsis) (UniProt O49545); assay: cross-linking; photoaffinity labeling as a3, in the presence of 100 μM NPD12704

Compound: CLE9 (from UniProt Q9FZE4)
- Kd [1]: 11.9 nM
- Kd [2]: 1.8 nM

Compound: [Ara3]CLV3 (from UniProt Q9XF04)
- Kd [3]: 1 nM

Compound: [^125I]ASA-CLE9 (peptide)
- cross-linked band, percent of the control, with 10 μM NPD12704 (% of the control) [4]: 62
- cross-linked band, percent of the control, with 100 μM NPD12704 (% of the control) [5]: 33

The next lines start with the values.

- IC50 (BAM1): 26000 nM
Compound: CNC(=S)Nc1cc(OC)c(OC)cc1Cc1nccc2cc(OC)c(OC)cc12 [NPD12704]

- cross-linked band, percent of the control, with 10 μM NPD12704 (% of the control) [4]: 46
Compound: [^125I]ASA-[Ara3]CLV3 glycopeptide
